From patent US20250108096A1, “ALCOHOL CLEANSING METHODS” (Aperiam Bio, Inc., priority 2023, published 2025)

How the values were obtained:
Assay type in all cases: in vivo
[1] = tested on: ethanol levels in circulation; assay: Circulating ethanol levels after acute ethanol intoxication, ADH delivered to mouse lung (Example 1); details: mice
Description: Enzyme and Enzyme Solution: Alcohol dehydrogenase (ADH) from Saccharomyces cerevisiae lyophilized powder), ≥300 units/mg protein, was utilized (Sigma-Aldrich; A7011). NAD^+ utilized was obtained commercially (Sigma-Aldrich; SKU 10127965001). Enzyme solution was prepared by diluting 100 mg of ADH in 2 mL of phosphate buffered saline (PBS) on the day the study protocol began. The Enzyme plus NAD^+ solution was prepared by diluting 100 mg of ADH and 100 mg of NAD^+ in 2 mL of PBS.
Ethanol Solution: Non-denatured ethanol was diluted to a 20% weight/volume solution with PBS (4.3M ethanol solution).
Blood Draw Dilution: Blood was drawn from mice at time points zero, 30 minutes, 1 hour and/or 4 hours after ethanol gavage (FIG. 2) and diluted 100× in buffer. The blood was processed for plasma, 50 μl of blood from the tail vein at each time point was collected using 125 μl heparinized capillary tube (Fisher Sci Cat #14-915-64). Using a pipette the heparinized blood was forced out by air of the capillary tube and into a 0.6 ml mct. The tubes were kept on ice and subsequently spun down to recover the plasma. Plasma was removed and placed into a new tube and kept on ice until needed for the same day assay. […]
Ethanol Detection: Ethanol was detected using the Sigma-Aldrich Ethanol Assay Kit (MAK076) according to the manufacturer's protocol for colorimetric detection. […]

[2] = tested on: ethanol levels in circulation; assay: Alcohol clearance in mice by pulmonary delivery of ADH, Abcam Ethanol Detection kit (Example 2); details: protocol of Example 1, FIG. 5
Description: However, the Abcam Ethanol Detection kit was utilized for ethanol detection and the experimental group delivered ADH and NAD^+ were administered 1 mg ADH, 0.15 mmole NAD^+ (as opposed to 2 mg ADH, 0.15 mmole NAD^+ utilized in Example 1).

[3] = tested on: ethanol levels in circulation; assay: Blood ethanol in mice after intratracheal commercial ADH and ALDH (Example 5); details: 4 g/kg ethanol oral gavage, intratracheal 60 minutes later: 2 mg or 600 U ADH, 10 mg or 20 U ALDH, each with 0.15 mmol NAD+, 2 mice per group, FIG. 6
Description: Enzyme and Enzyme Solution: Alcohol dehydrogenase (ADH) from Saccharomyces cerevisiae lyophilized powder), ≥300 units/mg protein, was utilized (Sigma-Aldrich; A7011). NAD utilized was obtained commercially (Sigma-Aldrich; SKU 10127965001). The Enzyme plus NAD solution was prepared by diluting 100 mg of ADH and 100 mg of NAD in 2 mL of PBS. ADH plus NAD^+ solution was prepared by diluting 100 mg of ADH plus 100 mg NAD^+ in 2 mL of phosphate buffered saline (PBS) on the day the study protocol began.
Aldehyde dehydrogenase (ALDH) (lyophilized powder), ≥2.0 units/mg protein potassium-activated, 50 mg total (Cymit; CAS: 9028-88-0) was utilized. ALDH plus NAD^+ solution was prepared by diluting 50 mg ALDH and 100 mg NAD^+ in 0.500 mL of PBS on the day the study protocol began. Any unused ALDH plus NAD^+ solution was stored in a −80° C.
(§1) Ethanol Solution: Non-denatured ethanol was diluted to a 70% volume/volume solution.
(§2) Ethanol Detection: Ethanol was detected using the Sigma-Aldrich Ethanol Assay Kit (MAK076) according to the manufacturer's protocol for colorimetric detection. Several dilutions for a 5 μL blood draw were tested to ensure the sample was within the linear range of the standard curve. Working in a lab space exposed to ethanol vapors was avoided. […]

[4] = tested on: ethanol levels in circulation; assay: Blood ethanol in mice after intratracheal yeast ADH and human ALDH2 variant (Example 6); details: 2 g/kg ethanol oral gavage, intratracheal 60 minutes later: 2 mg or 600 U ADH, 0.15 mmol NAD+, with or without 1.2 mg variant ALDH, 2 mice per group, FIG. 7
Description: Enzyme and Enzyme Solution: Alcohol dehydrogenase (ADH) from Saccharomyces cerevisiae lyophilized powder), ≥300 units/mg protein, was utilized (Sigma-Aldrich; A7011). NAD^+ utilized was obtained commercially (Sigma-Aldrich; SKU 10127965001). The Enzyme plus NAD^+ solution was prepared by diluting 100 mg of ADH and 100 mg of NAD^+ in 2 mL of PBS. ADH plus NAD^+ solution was prepared by diluting 200 mg of ADH plus 200 mg NAD^+ in 2 mL of phosphate buffered saline (PBS) on the day the study protocol began. A variant of human ALDH was utilized.
as §1
Ethanol Detection: Ethanol was detected using the Abcam Ethanol Assay Kit (ab65343) according to the manufacturer's protocol for colorimetric detection. Several dilutions for a 5 μL blood draw were tested to ensure the sample was within the linear range of the standard curve. Working in a lab space exposed to ethanol vapors was avoided.
To evaluate the combined effect of ADH and a variant ALDH enzyme delivery to the lungs of mice on ethanol levels in circulation after acute ethanol intoxication, ethanol control and experimental group mice were administered 2 g/kg ethanol by oral gavage (90 μL of 70% ethanol solution for a 25 g mouse) at time one. […]

[5] = tested on: ethanol levels in circulation; assay: Blood ethanol in mice after intratracheal ADH, variant ALDH and variant NOX (Example 7); details: 2 g/kg ethanol oral gavage, intratracheal 60 minutes later: 300 μg ADH, 2.52 mg variant ALDH, 250 μg variant NOX, no NAD+, 2 mice per group, FIG. 8
Description: Enzyme and Enzyme Solution: Alcohol dehydrogenase (ADH) from Saccharomyces cerevisiae lyophilized powder), ≥300 units/mg protein, was utilized (Sigma-Aldrich; A7011). ADH solution was prepared by diluting 200 mg of ADH in 2 mL of phosphate buffered saline (PBS) on the day the study protocol began. A variant of human ALDH (hALDH2) and a variant of the Lactobacillus brevis NOX enzyme were utilized. The variant hALDH2 and variant NOX enzymes were generated in Escherichia coli and each comprise an N-terminal HIS-tag to facilitate purification. A variant hALDH2 solution was prepared at a concentration of 60 mg/mL and a variant NOX solution was prepared at 50 mg/mL.
as §1, §2

B1: Alcohol dehydrogenase (ADH) from Saccharomyces cerevisiae (protein, UniProt P00330 2-348, looked up)
Alcohol dehydrogenase 1: SIPETQKGVIFYESHGKLEYKDIPVPKPKANELLINVKYSGVCHTDLHAWHGDWPLPVKLPLVGGHEGAGVVVGMGENVKGWKIGDYAGIKWLNGSCMACEYCELGNESNCPHADLSGYTHDGSFQQYATADAVQAAHIPQGTDLAQVAPILCAGITVYKALKSANLMAGHWVAISGAAGGLGSLAVQYAKAMGYRVLGIDGGEGKEELFRSIGGEVFIDFTKEKDIVGAVLKATDGGAHGVINVSVSEAAIEASTRYVRANGTTVLVGMPAGAKCCSDVFNQVVKSISIVGSYVGNRADTREALDFFARGLVKSPIKVVGLSTLPEIYEKMEKGQIVGRYVVDTSK
notes: Commercial yeast alcohol dehydrogenase, lyophilized powder, ≥300 units/mg protein (Sigma-Aldrich; A7011)
- blood alcohol levels relative to animals that were not administered ADH ([1]; ethanol 2 g/kg oral gavage, ADH intratracheally 15 minutes after gavage, blood at 30 minutes, 1 hour, 4 hours, FIG. 3): reduced
- circulating ethanol levels relative to control ([1]; ethanol by oral gavage, intratracheal administration of ADH, FIG. 1): reduced
- blood alcohol levels relative to animals that were not administered ADH [2]: reduced
- effect on removing alcohol (blood ethanol level) [3]: stronger effect on removing alcohol compared to ALDH alone
- amount of alcohol in the blood [4]: lowered the amount of alcohol in the blood
- amount of alcohol in the blood [5]: lowered the amount of alcohol in the blood
